Series [1] is described as follows: QELS particle size and zeta potential of cross-linking peptide DNA condensates, Example 5. The series is classed as physicochemical. To be noted: for Particle Size Mean Diameter, Oxidized, 15° / Particle Size Mean Diameter, Oxidized, 90°: HBM after 2 h incubation, 50 μg/ml DNA, 0.4 nmol peptide per μg DNA; for Particle Size Mean Diameter, Oxidized, 15°: scattering angle 15°; for Particle Size Mean Diameter, Oxidized, 90°: scattering angle 90°; for Particle Size Mean Diameter, Saline: HBM with added saline (0.15 M) after 15 min; for Particle Size Mean Diameter, Reduced: following addition of TCEP (1 mM). On the procedure:
The particle size of each peptide DNA condensate was determined by quasielastic light scattering (QELS) at a scatter angle of both 15° and 90° on a Brookhaven ZetaPlus™ particle sizer. Condensates were prepared at a DNA concentration of 50 μg/ml in 400 μl HBM at a stoichiometry of 0.4 nmol of peptide per μg of DNA corresponding to a charge ratio of approximately 2:1 for each. The mean diameter and population distribution were computed from the diffusion coefficient using a unimodal cummulant analysis supplied by the manufacturer.
The particle size and zeta peptide IV DNA condensates were determined by titrating 7.5 to 37.5 nmol of peptide with 75 μg of DNA in 1.5 ml of HBM to produce 50 μg/ml DNA condensates with charge ratio of 0.5-2.5. The zeta potential was averaged from 10 determines.

Series [2] in a line: Shear stress stability (salt sonication assay), Example 6. The series is classed as physicochemical. The following applies: 30 sec sonication; highest tested 2.5 M. On the procedure:
The relative stability of peptide DNA condensates were examined using a salt sonication assay (Adami and Rice, 1999). Peptide DNA condensates (200 μl of 50 μg/ml) were formed as described above, incubated at RT for 30 min and then combined with 0-200 μl of 5 m […] and normalized to 400 μl with HBM to achieve a final sodium chloride concentration of 0, 0.2, 0.4, 0.8, 1.0, 1.5, 2.0 and 2.5 M. Each sample was sonicated for 30 sec with a 100 W Microson™ XL-2000 ultrasonic probe homogenizer (Kontes, Vineland N.J.) with a vibrational amplitude of 5 fragment uncondensed DNA. DNA condensates were digested with 30 μg to trypsin for 12 h at 37° C., electrophoresed on a 1% agarose gel electrophoresed in TEA buffer for 2 h, then visualized by ethidium bromide staining and destaining prior to photography on a transilluminator.

Series [3] in a line: QELS particle size and zeta potential of peptide DNA condensates, Example 6. The series is classed as physicochemical. To be noted: charge ratio 4:1, 50 μg/ml DNA in HBM; for Particle Size (nm): 90°, average and SD of three, No particles formed; for Zeta Potential (mV): average and SD of ten. On the procedure: The particle size and zeta potential of peptide DNA condensates were determined by quasielastic light scattering (QELS) using a Brookhave ZetaPlus™. Particle size analysis was performed in triplicate at a DNA concentration of 50 μg/ml in HBM at a charge ratio of 4:1 and a scattering angle of 90°. Data analysis utilized a multimodal volume distribution option included with the instrument. Zeta potential was also determined using 50 μg/ml peptide DNA condensates prepared at a 4:1 charge ratio in HBM. The reported zeta potential was averaged from ten determinations.

The test system of another series is HepG2 cells. The experiment in a line: Luciferase gene expression in HepG2 cells, Example 6. It is filed as cell-based. The following applies: HepG2, absence of chloroquine. On the procedure:
HepG2 cells (1.5×10^5) were plated on 6×35 mm wells and grown to 50% confluencey in MEM supplemented with 10% FBS, penicillin and streptomycin (100 U/ml), sodium pyruvate (100 mM), and L-glutamine (2 mM). Transfections were performed in MEM (2 ml per 35 mm well) with 2% FBS with and without 80 μM chloroquine. Peptide DNA condensates (10 μg of DNA of 0.2 ml HBM) were added dropwise to triplicate wells. After a 5 h incubation at 37° C., the medium was replaced with MEM supplemented with 10% FBS. After 24 h, cells were washed with ice-cold phosphate buffered saline (calcium and magnesium free) and then treated with 0.5 ml of ice-cold lysis buffer (25 mM) Tris chloride pH 7.8, 1 mM EDTA, 8 mM magnesium chloride, 1% Triton X-100, 1 mM DTT) for 10 min. The cell lysates were scraped, transferred to 1.5 ml microcentrifuge tube, and centrifuged for 7 min at 13,000 g at 4° C. to pellet debris.
Lysis buffer (300 μl), sodium-ATP (4 μl of a 180 mM solution, pH 7, 4° C.) and cell lysate (100 μl, 4° C.) were combined in a test tube, briefly mixed and immediately placed in the luminometer. Luciferase relative light units (RLU) were recorded on a Lumat™ LB 9501 (Berthoid Systems, Germany) with 10 sec integration after automatic injection of 100 μl of 0.5 mM D-luciferin (prepared fresh in lysis buffer without DTT). The RLU were converted into fmol using a standard curve generated by adding a known amount of luciferase (0.01 to 100 fmols with specific activity of 2.5 nU/fmol) to 35 mm wells containing 50% confluent cells and lysis buffer. Protein concentrations were measured by Bradford assay using bovine serum albumin as a standard (Bradford, 1976). […]
LipofectAce™ (Gibco BRL, 1:2.5 w/w dimethyl dioctadecylammonium bromide and dioleoyl phosphatidylethanolamine) was used to mediate gene transaction according to the manufacturer's instructions. […] The cells were incubated for a total of 24 h, harvested and analyzed for luciferase as described above.

The nature of series [4]: Shear stress stability of cross-linked DNA condensates (salt sonication), Example 5. The series is classed as physicochemical. To be noted: charge ratio of 0.9. On the procedure: Peptide DNA condensates (200 μl of 50 μg/ml) were formed and incubated at RT for 30 min and then combined with 0 to 200 μl of 5 M sodium chloride and normalized to 400 μl with HBM to achieve a final sodium chloride concentration of 0, 0.2, 0.4, 0.8, 1.0, 1.5, 2.0, and 2.5 M. Each sample was sonicated for 30 sec with a 100 W Microson™ XL-2000 ultrasonic probe homogenizer (Kontes, Vineland N.J.) with a vibrational amplitude of 6 to fragment uncondensed DNA (Adami et al., 1998). DNA condensates were digested with 30 μg of trypsin for 12 h at 37° C. then electrophoresed on an agarose gel and visualized by ethidium bromide staining.

For the next series, the system named is plasmid DNA. The experiment in a line: Thiazole orange displacement titration of peptide binding to DNA, Example 6. To be noted: titration across charge ratios 0.25-8. On the procedure:
Peptide DNA condensates were prepared by combining 50 μg of DNA in 500 μl of Hepes buffered mannitol (HBM) (5 w/v% mannitol, 5 mM Hepes, pH 7.5) with […] of peptide in 500 μl of HBM while vortexing to form peptide DNA condensates with a calculated primary amine to phosphate charge ratio between 0.25 and 8.0 (NH4^+:PO4). The condensates were allowed to cross-link for 30 min prior to performing physical measurements. The binding of each peptide to DNA was assayed by combining peptide DNA condensates (50 μl) with 950 μl of HBM containing 0.1 μM thiazole orange. The fluorescence of the intercalated dye was measured using an LS50B fluorometer (Perkin Elmer, UK) by exciting at 500 nm while monitoring emission at 530 nm with the slit width set at 15 and 20 nm, respectively. Fluorescence blanks were substracted from all values before data analysis.

As to “Cys-Trp-Lys8-Cys-Lys8-Cys (CWKKKKKKKKCKKKKKKKKC) [III]”, in series [1], the “Particle Size Mean Diameter, Oxidized, 15°” value was 26 nm; the “Particle Size Mean Diameter, Oxidized, 90°” value came to 39 nm; the “Particle Size Mean Diameter, Saline” value was found to be 157 nm; the “Particle Size Mean Diameter, Reduced” value stood at 136 nm.

For “Cys-(Lys)3-Cys-(Lys)3-Cys (CKKKCKKKC) [Peptide 10]”, the “sodium chloride concentration up to which DNA condensates are stable” value in series [2] is 2.5 M. Also, in series [3], the “Particle Size (nm)” value amounted to 1375 ± 324 nm and the “Zeta Potential (mV)” value turned out to be 34 ± 2 mV.

Turning to “Cys-(His-Lys)4-Cys (CHKHKHKHKC) [Peptide 15]”, in series [3], the “Particle Size (nm)” value stood at 205 ± 104 nm and the “Zeta Potential (mV)” value stood at 23 ± 1 mV.

Regarding “Cys-His-(Lys)6-His-Cys (CHKKKKKKHC) [Peptide 13]”, in series [3], the “Particle Size (nm)” value amounted to 97 ± 40 nm and the “Zeta Potential (mV)” value was found to be 31 ± 1 mV. The “higher gene expression compared to peptide 7 DNA condensates” value with HepG2 cells was determined as 4 fold.

On to “Cys-(Lys)4-Cys-(Lys)4-Cys (CKKKKCKKKKC) [Peptide 11]”, for which the “sodium chloride concentration up to which DNA condensates are stable” value in series [2] was determined as 2.5 M. Moreover, in series [3], the “Particle Size (nm)” value turned out to be 738 ± 154 nm and the “Zeta Potential (mV)” value is 31 ± 3 mV.

Consider “Cys-Trp-Lys5-Cys-Lys5-Cys-Lys5-Cys [Peptide IV]”, for which, in series [1], the “Particle Size Mean Diameter, Oxidized, 15°” value was found to be 57 nm; the “Particle Size Mean Diameter, Oxidized, 90°” value turned out to be 44 nm; the “Particle Size Mean Diameter, Saline” value was 324 nm; the “Particle Size Mean Diameter, Reduced” value is 158 nm. In addition, in series [1] (charge ratio of 0.9), the “particle size of electronegative DNA condensates” value is recorded as 62 nm and the “zeta potential of electronegative DNA condensates” value is −18 mV. The “sodium chloride concentration up to which fragmentation was resisted” value in series [4] is 2.5 M.

As to Cys-(Lys)6-Cys (CKKKKKKC) [Peptide 6], in the series on plasmid DNA, the “charge ratio (NH4+:PO4) needed to condense DNA (thiazole orange fluorescence minimum)” value (from here on “charge ratio (NH4+:PO4) needed”) stood at 2. Moreover, in series [3], the “Particle Size (nm)” value was found to be 52 ± 4 nm and the “Zeta Potential (mV)” value is recorded as 37 ± 1 mV.

On to “Cys-Lys-Cys-Lys-Cys (CKCKC; printed: Cys-Lys-Cys-Lys-Cys) [Peptide 8]”, for which, in the series on plasmid DNA, the “charge ratio (NH4+:PO4) needed” value is listed as 6-8.

As for Cys-(Lys)2-Cys (CKKC) [Peptide 4], the “charge ratio (NH4+:PO4) needed” value in the series on plasmid DNA was > 8.

Regarding “Cys-His-(Lys)3-His-(Lys)2-His-Cys (CHKKKHKKHC) [Peptide 14]”, in series [3], the “Particle Size (nm)” value is recorded as 183 ± 64 nm and the “Zeta Potential (mV)” value came out at 20 ± 2 mV. In the series on HepG2 cells, the “higher gene expression compared to peptide 7 DNA condensates” value is reported as 4 fold.

Turning to “Cys-His-Lys-His-Lys-(His)2-Lys-His-Cys (CHKHKHHKHC) [Peptide 16]”, in series [3], the “Particle Size (nm)” value was found to be 320 ± 169 nm and the “Zeta Potential (mV)” value was 23 ± 1 mV.

With “Cys-(Lys)2-Cys-(Lys)2-Cys (CKKCKKC) [Peptide 9]”, the “sodium chloride concentration up to which DNA condensates are stable” value in series [2] was 1.5 M. For the same substance, the “Particle Size (nm)” value in series [3] came out at 1668 ± 154 nm.

The record behind these values is patent publication US6770740B1, “Crosslinked DNA condesate compositions and gene delivery methods” (The Regents of the University of Michigan, priority 1999, dated 2004).
